Assay results reported in publication PMC11933697 (Nature Communications, 2025).
Where a chain is given by its changes, count along the chain named. Numbers in names are those of the source. Like-named read-outs stand apart in the source and are kept apart here.

Tests used:
Experiment in all cases: ITC
[1] = biological target: T1, NS1/MED25 ACID complex (human respiratory syncytial virus …, UniProt P0DOE9 1-139; Q71SY5 389-543)
T1 sequence (looked up) 1: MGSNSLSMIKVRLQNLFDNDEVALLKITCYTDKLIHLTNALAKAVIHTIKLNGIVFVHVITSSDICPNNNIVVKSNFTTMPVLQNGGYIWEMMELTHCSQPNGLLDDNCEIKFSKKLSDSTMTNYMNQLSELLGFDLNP
T1 sequence (looked up) 2: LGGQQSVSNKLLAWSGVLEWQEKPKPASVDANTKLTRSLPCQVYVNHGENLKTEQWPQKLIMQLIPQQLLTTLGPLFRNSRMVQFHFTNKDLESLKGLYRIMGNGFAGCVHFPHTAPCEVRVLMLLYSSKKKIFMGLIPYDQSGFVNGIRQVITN

[2] = biological target: T2, hMED25 ACID (389-543) (human, UniProt Q71SY5 389-543)
T2 sequence (looked up): T1 sequence (looked up) 2

[3] = biological target: T2, hMED25 ACID (389-543); remark: listed apart in the source
[4] = biological target: T3, MED25 ACID I537A/R538A (human, UniProt Q71SY5 389-543, I537A | R538A)
T3 sequence (looked up): T1 sequence (looked up) 2 with I149A, R150A

[5] = biological target: T4, MED25 ACID I541A/T542A (human, UniProt Q71SY5 389-543, I541A | T542A)
T4 sequence (looked up): T1 sequence (looked up) 2 with I153A, T154A

B1: hATF3 bZIP (88-149) (domain or fragment, human, UniProt P18847 88-149, looked up)
chain: RKKRRRERNKIAAAKCRNKKKEKTECLQKESEKLESVNAELKAQIEELKNEKQHLIYMLNLH
Kd [1]: 3080 ± 1320 nM | Kd [2]: 1290 ± 321 nM

B2: NS1 E110A (natural protein, human respiratory syncytial virus (hRSV), UniProt P0DOE9 1-139, looked up)
chain: T1 sequence (looked up) 1 with E110A
Kd [3]: 1740 ± 370 nM

B3: hRSV NS1 (1-139) (natural protein, human respiratory syncytial virus (hRSV), UniProt P0DOE9 1-139, looked up)
chain: T1 sequence (looked up) 1
Kd [4]: 82 ± 10 nM | Kd [5]: 116 ± 30 nM | Kd [3]: 41 ± 5 nM

B4: NS1 Y125A (natural protein, human respiratory syncytial virus (hRSV), UniProt P0DOE9 1-139, looked up)
chain: T1 sequence (looked up) 1 with Y125A
Kd [3]: 182 ± 20 nM

B5: NS1 ΔDLNP (domain or fragment, human respiratory syncytial virus (hRSV), UniProt P0DOE9 1-135, looked up)
chain: MGSNSLSMIKVRLQNLFDNDEVALLKITCYTDKLIHLTNALAKAVIHTIKLNGIVFVHVITSSDICPNNNIVVKSNFTTMPVLQNGGYIWEMMELTHCSQPNGLLDDNCEIKFSKKLSDSTMTNYMNQLSELLGF
binding result [3]: binds

B6: NS1 N85A (natural protein, human respiratory syncytial virus (hRSV), UniProt P0DOE9 1-139, looked up)
chain: T1 sequence (looked up) 1 with N85A
Kd [3]: 41 ± 8 nM
